Test results as given in the supplement of paper PMC7877785.
± gives the uncertainty stated by the source.

Assay: self-splicing fitness, log relative to wild type (ln ratio); higher = more splicing; Tetrahymena group I intron in knt gene, E. coli kanamycin selection, DiMSum; sequences stand for … in CUCUCU…GGAGGGAAAAGUUAUCAGGCAUGCACCUGGUAGCUAGUCUUUAAACCAAUAGAUUGCAUCGGUUUAAAAGGCAAGACCGUCAAAUUGCGGGAAAGGGGUCAACAGCCGUUCAGUACCAAGUCUCAGGGGAAACUUUGAGAUGGCCUUGCAAAGGGUAUGGUAAUAAGCUGACGGACAUGGUCCUAACCACGCAGCCAAGUCCUAAGUCAACAGAUCUUCUGUUGAUAUGGAUGCAGUUCACAGACUAAAUGUCGGUCGGGGAAGAUGUAUUCUUCUCAUAAGAUAUAGUCGGACCUCUCCUUAAUGGGAGCUAGCGGAUGAAGUGAUGCAACACUGGAGCCGCUGGGAACUAAUUUGUAUGCGAAAGUAUAUUGAUUAGUUUUGGAGUACUCGUGGUCG
In short: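 Pooled colonies went to amplicon sequencing on an Illumina HiSeq 2500 after six replicate transformations. The plates were LB agar with 100 μg/mL carbenicillin, 50 μM IPTG and 0.2% rhamnose, with or without 25 μg/mL kanamycin, incubated overnight at 37°C or 30°C. The E. coli BL21(DE3) library had all eight P1ex-region intron nucleotides randomised, the intron placed in the knt kanamycin-resistance gene on pET-22b(+). DiMSum fitness is the error-weighted combination of replicate fold changes, kanamycin against none, normalised to wild type.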

Sequence	self-splicing fitness (ln) (30 °C)	self-splicing fitness (ln) (37 °C)
AAGUAGCAAUAUUACGAGAA	-2.44 ± 0.22	-2.05 ± 0.44
AAGUAGCAAUAUUACGAUCA	-0.93 ± 0.11	-0.174 ± 0.11
AAGUAGCAAUAUUACGAUUU	0.429 ± 0.06	0.104 ± 0.075
AAGUAGCAAUAUUACGCAAA		-1.34 ± 0.31
AAGUAGCAAUAUUACGCCGU	-1.94 ± 0.19	-0.462 ± 0.19
AAGUAGCAAUAUUACGCGAA	-2.76 ± 0.23	-0.182 ± 0.18
AAGUAGCAAUAUUACGCUUC		-1.41 ± 0.2
AAGUAGCAAUAUUACGGAAA	-2.49 ± 0.3	-1.84 ± 0.24
AAGUAGCAAUAUUACGGAUA	-2.1 ± 0.17	-1.66 ± 0.16
AAGUAGCAAUAUUACGGCCC	-0.413 ± 0.17	-1.15 ± 0.26
AAGUAGCAAUAUUACGGGGC	-3.29 ± 0.3	-3.4 ± 0.26
AAGUAGCAAUAUUACGGGGU	-3.03 ± 0.15	-2.53 ± 0.15
AAGUAGCAAUAUUACGGUCC	-1.32 ± 0.17	-0.239 ± 0.14
AAGUAGCAAUAUUACGGUCG	-2.14 ± 0.13	-1.03 ± 0.12
AAGUAGCAAUAUUACGUAGA	-3.01 ± 0.18	-1.45 ± 0.21
AAGUAGCAAUAUUACGUGCC	-0.879 ± 0.087	-0.766 ± 0.1
AAGUAGCAAUAUUACGUUAG	-3.51 ± 0.23	-3 ± 0.34
AAGUAGCAAUAUUACGUUCU	-0.514 ± 0.062	-0.45 ± 0.09
AAGUAGCAAUAUUACGUUGU	-2.95 ± 0.1	-2.43 ± 0.13
AAUAAGCAAUAUUACGAAGC	-3.57 ± 0.43	
AAUAAGCAAUAUUACGAGCA	-1.37 ± 0.2	-0.258 ± 0.2
AAUAAGCAAUAUUACGAUAG	-3.78 ± 0.32	-2.13 ± 0.24
AAUAAGCAAUAUUACGAUUU	-0.134 ± 0.064	-0.252 ± 0.074
AAUAAGCAAUAUUACGCACG	-1.06 ± 0.11	-0.851 ± 0.14
AAUAAGCAAUAUUACGCAUG	-1.16 ± 0.13	-0.645 ± 0.12
AAUAAGCAAUAUUACGCCAU	-2.76 ± 0.14	-1.75 ± 0.15

Sequence	self-splicing fitness (ln) (30 °C)	self-splicing fitness (ln) (37 °C)
AAUAAGCAAUAUUACGCCCU	-0.352 ± 0.12	0.525 ± 0.15
AAUAAGCAAUAUUACGGAGA	-2.61 ± 0.3	-1.76 ± 0.36
AAUAAGCAAUAUUACGGAUC	-0.855 ± 0.087	-0.124 ± 0.14
AAUAAGCAAUAUUACGGCCU	-0.0966 ± 0.09	-0.0762 ± 0.13
AAUAAGCAAUAUUACGGGAG	-2.91 ± 0.19	-2.14 ± 0.14
AAUAAGCAAUAUUACGGGGU	-3.91 ± 0.31	-3.11 ± 0.23
AAUAAGCAAUAUUACGGUAC	-2.68 ± 0.21	-1.79 ± 0.14
AAUAAGCAAUAUUACGGUAG	-3.77 ± 0.24	-1.95 ± 0.21
AAUAAGCAAUAUUACGGUCU	-0.462 ± 0.055	0.0374 ± 0.073
AAUAAGCAAUAUUACGGUUG	-2.86 ± 0.12	-1.97 ± 0.14
AAUAAGCAAUAUUACGGUUU	-0.628 ± 0.064	-0.165 ± 0.092
AAUAAGCAAUAUUACGUACA	-0.815 ± 0.1	-0.842 ± 0.11
AAUAAGCAAUAUUACGUCAG	-3.34 ± 0.18	-1.82 ± 0.13
AAUAAGCAAUAUUACGUGGC	-2.72 ± 0.22	-2.82 ± 0.36
AAUAAGCAAUAUUACGUUAA	-2.76 ± 0.19	-0.928 ± 0.13
AAUAAGCAAUAUUACGUUCG	-1.5 ± 0.08	-0.605 ± 0.095
AAUAAGCAAUAUUACGUUGU	-3.22 ± 0.14	-2.51 ± 0.19
AAUAAGCAAUAUUACGUUUU	-1.78 ± 0.076	-1.55 ± 0.12
AAUCAGCAAUAUUACGAACG	-0.399 ± 0.088	-0.368 ± 0.1
AAUCAGCAAUAUUACGAAGC	-0.428 ± 0.11	-0.998 ± 0.14
AAUCAGCAAUAUUACGAAGU	-0.414 ± 0.059	0.136 ± 0.084
AAUCAGCAAUAUUACGACAU	0.114 ± 0.011	0.208 ± 0.032
AAUCAGCAAUAUUACGACGC	-0.394 ± 0.098	-0.936 ± 0.11
AAUCAGCAAUAUUACGAGCA	-0.936 ± 0.14	-0.0653 ± 0.12
AAUCAGCAAUAUUACGAGUU	-0.331 ± 0.049	0.000416 ± 0.074
AAUCAGCAAUAUUACGCCUG	-0.906 ± 0.17	0.165 ± 0.18

Sequence	self-splicing fitness (ln) (30 °C)	self-splicing fitness (ln) (37 °C)
AAUCAGCAAUAUUACGCGGA	-0.694 ± 0.076	-0.555 ± 0.079
AAUCAGCAAUAUUACGCUAU	-0.347 ± 0.084	0.0833 ± 0.12
AAUCAGCAAUAUUACGCUUG	-0.11 ± 0.068	-0.33 ± 0.084
AAUCAGCAAUAUUACGGACU	-0.329 ± 0.1	-0.697 ± 0.099
AAUCAGCAAUAUUACGGAGA	-0.814 ± 0.085	-1.04 ± 0.1
AAUCAGCAAUAUUACGGAGU	-0.488 ± 0.047	0.346 ± 0.064
AAUCAGCAAUAUUACGGCCG	-0.87 ± 0.12	0.00722 ± 0.18
AAUCAGCAAUAUUACGGCUG	-2.34 ± 0.15	-1.87 ± 0.2
AAUCAGCAAUAUUACGGGGU	-3.02 ± 0.17	-1.39 ± 0.12
AAUCAGCAAUAUUACGGUCA	0.236 ± 0.1	0.432 ± 0.12
AAUCAGCAAUAUUACGUAAG	-0.572 ± 0.075	-0.104 ± 0.1
AAUCAGCAAUAUUACGUACG	-0.91 ± 0.056	-0.149 ± 0.075
AAUCAGCAAUAUUACGUCGA	-0.548 ± 0.095	0.0423 ± 0.1
AAUCAGCAAUAUUACGUCUA	-0.491 ± 0.069	-0.133 ± 0.076
AAUCAGCAAUAUUACGUUAU	-0.401 ± 0.041	0.272 ± 0.062
AAUCAGCAAUAUUACGUUUA	-0.652 ± 0.045	-0.106 ± 0.06
AAUGAGCAAUAUUACGAAAU	-2.14 ± 0.28	-1.36 ± 0.34
AAUGAGCAAUAUUACGAAGC	-3.08 ± 0.35	-1.89 ± 0.43
AAUGAGCAAUAUUACGAUGC	-2.44 ± 0.21	
AAUGAGCAAUAUUACGCCCU	-1.32 ± 0.12	-1.16 ± 0.17
AAUGAGCAAUAUUACGCGAU	-3.63 ± 0.41	-0.995 ± 0.22
AAUGAGCAAUAUUACGCGGC	-2.15 ± 0.19	-2.11 ± 0.24
AAUGAGCAAUAUUACGCGGG	-3.11 ± 0.3	-2.57 ± 0.25
AAUGAGCAAUAUUACGCUAA	-3.1 ± 0.36	-1.9 ± 0.2
AAUGAGCAAUAUUACGCUCG	-2.31 ± 0.25	-0.585 ± 0.18
